Non-standard residues stand in square brackets, D forms with d. No end group written: not given here. Orn = NCCC[C@H](N)C(=O)O
Key:
Format in all cases: physicochemical
[1] = Tricine SDS-PAGE with silver staining
Text: Trimer 3 migrates as a single band at a molecular weight consistent with a hexamer. Trimer 4, in contrast, migrates as two distinct bands: a band consistent with the molecular weight of a dodecamer, and a band consistent with the molecular weight of a trimer.
Peptide 8 assembles to form a hexamer in SDS-PAGE. […] To further confirm the oligomerization state of […], it was compared to covalent trimers 3 and 4 (FIGS. 19A and 19B), which was previously determined to migrate respectively as 10.6 kDa hexamers and 21.2 kDa dodecamers in equilibrium with the 5.3 kDa trimers. Peptide 8 migrates at the same molecular weight as the hexamer band of trimer 3, providing further evidence that peptide 8 assembles to form a hexamer in SDS-PAGE.
The oligomerization of peptides 1 and 2 and trimers 3 and 4 was studied by Tricine SDS-PAGE.
Each peptide or trimer was dissolved in deionized water to a concentration of 10 mg/mL. An aliquot of the 10 mg/mL solutions was diluted with deionized water to create 2 mg/mL solutions of peptides 1 and 2, or 0.12 mg/mL solutions of trimers 3 and 4. The […] of peptides 1 and 2, as well as the 0.12 mg/mL solutions of trimers 3 and 4 were further diluted with 2×SDS-PAGE loading buffer (100 mM Tris buffer at pH 6.8, 20% (v/v) glycerol, and 4% SDS) to create 1 mg/mL working solutions of peptides 1 and 2, and 0.06 mg/mL working solutions of trimers 3 and 4. A 5 μL aliquot of each working solution was run on a 16% polyacrylamide gel with a 4% stacking polyacrylamide gel. The gels were run at a constant 60 volts at 4° C.
Staining with silver nitrate was used to visualize peptides 1 and 2 and trimers 3 and 4 in the SDS-PAGE gel. Briefly, the gel was removed from the casting glass and rocked in fixing solution (50% (v/v) methanol and 5% (v/v) acetic acid in deionized water) for 20 min. Next, the fixing solution was discarded and the gel was rocked in 50% (v/v) methanol for 10 min. Next, the 50% methanol was discarded and the gel was rocked in deionized water for 10 min. Next, the water was discarded and the gel was rocked in 0.02% (w/v) sodium thiosulfate in deionized water for 1 min. The sodium thiosulfate was discarded and the gel was rinsed with deionized water (2×). After the last rinse, the gel was submerged in chilled 0.1% (w/v) silver nitrate in deionized water and rocked at 4° C. for 20 min. Next, the silver nitrate solution was discarded and the gel was rinsed with deionized water (2×). To develop the gel, the gel was incubated in developing solution (2% w/v sodium carbonate, 0.04% formaldehyde until the desired intensity of staining was reached (˜1-3 min). When the desired intensity of staining was reached, the development was topped by discarding the developing solution and submerging the gel in 5% acetic acid.

[2] = size exclusion chromatography in Tris buffer; settings: SEC
Text: The elution profile of peptide 8 was compared to the size standards vitamin B12, aprotinin, and cytochrome c, as well as peptide 2. Peptide 8 elutes as a broad peak with three distinct humps (FIG. 41B). […] Peptide 2 elutes as two distinct peaks: a larger peak with an elution volume consistent with the molecular weight of a dimer, and a smaller peak with an elution volume consistent with the molecular weight of a trimer (FIG. 41B). […]

[3] = X-ray crystallography, oligomers in the crystal; settings: crystal state
Experimental: The structures of trimers 3 and 4 were elucidated by X-ray crystallography. One of the challenges in X-ray crystallography is determining the X-ray crystallographic phases. Doing so often requires incorporation of a heavy atom—such as selenium, bromine or iodine—through covalent modification. In previously solving the X-ray crystallographic structures of peptides 1 and 2, homologues were prepared containing p-iodophenylalanine. In solving the X-ray crystallographic structures of trimers 3 and 4, two techniques for X-ray crystallographic phase determination that have not been widely used for peptides were employed: sulfur single-wavelength anomalous diffraction (S-SAD) and post-crystallization incorporation of iodide ions into the crystal lattice.
S-SAD was used to determine the X-ray crystallographic structure of trimer 4. The intrinsic anomalous scattering of the sulfur atoms in the asymmetric unit provided sufficient data to determine the X-ray crystallographic phases. […]
Diffraction data for trimers 3 and 4 were collected on a Rigaku Micromax-007HF X-ray diffractometer with a rotating copper anode at 1.54 Å wavelength with 0.5° oscillation. […] Coordinates for the anomalous signals were determined by HySS in the Phenix software suite 1.10.1. Electron density maps were generated using anomalous coordinates determined by HySS as initial positions in Autosol. […]

Row | Substance | oligomer size by SDS-PAGE [1] | oligomer size [2] | oligomer state by migration in SDS-PAGE [1] | oligomer size by crystallography [3]
1 | peptide 1: macrocyclic β-sheet peptide: Aβ17-23 and Aβ30-36 strands linked by two δOrn turns, Orn35, N-methyl on G33 (Seq. ID 18-19) | 1-2 |  |  | 
2 | peptide 2: macrocyclic β-sheet peptide: Aβ17-23 and Aβ30-36 strands linked by two δOrn turns, Orn35, N-methyl on F20 (Seq. ID 20-21) | 1-2 | dimer, trimer | monomer or dimer | 
3 | trimer 3: symmetric tris-disulfide crosslinked trimer generated from peptide 3 (chain 1 [Orn]CVFFCED; chain 2 [Orn]AIIGL[Orn]V; not fully specified (some residues); also: symmetric tris-disulfide crosslinked trimer, macrocyclic by macrolactamization, linkage of strands not given here) | 6 |  | hexamer | 6
